The results in this text go back to patent US20140322216A1.

The target of this test is human glypican-3 naturally expressed on the cell surface (HepG2 and other GPC3+ cell lines) (human) (UniProt P51654). As to the kind of experiment: flow cytometry on HepG2, 1G12 with anti-mouse dye, grey = isotype control; on Hs578T the histogram lies on the control's.
human glypican-3 naturally expressed on the cell surface (HepG2 and other GPC3+ cell lines) (human), sequence (P51654 25-554 limits assumed): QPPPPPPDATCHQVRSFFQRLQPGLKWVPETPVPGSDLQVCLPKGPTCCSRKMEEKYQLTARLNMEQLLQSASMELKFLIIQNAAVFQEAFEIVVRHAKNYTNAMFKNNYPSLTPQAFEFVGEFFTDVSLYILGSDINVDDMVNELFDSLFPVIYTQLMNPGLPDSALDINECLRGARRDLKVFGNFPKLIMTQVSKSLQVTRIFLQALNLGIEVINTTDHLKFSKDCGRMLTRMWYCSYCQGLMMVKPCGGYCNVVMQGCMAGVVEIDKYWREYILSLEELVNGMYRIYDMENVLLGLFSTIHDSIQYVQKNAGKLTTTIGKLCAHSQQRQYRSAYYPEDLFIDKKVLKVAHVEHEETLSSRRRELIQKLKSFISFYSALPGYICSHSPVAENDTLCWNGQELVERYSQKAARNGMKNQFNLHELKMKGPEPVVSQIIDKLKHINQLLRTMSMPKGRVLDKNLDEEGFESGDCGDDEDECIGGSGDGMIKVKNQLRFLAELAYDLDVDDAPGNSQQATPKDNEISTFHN

The substance “commercial monoclonal anti-human GPC3 antibody (clone 1G12)” registered a % of cells in the positive gate of 46.1%.
